# According to patent publication US9206432B2, “Sulfonylurea-responsive repressor proteins” (priority 2008, dated 2015):
# Tested on: lacZ under control of the tetA promoter (PtetA) in E. coli KM3
# Type: cell-based
# Conditions: for relative β-galactosidase activity, inducer atc / relative β-galactosidase activity, inducer Ci / relative β-galactosidase activity, inducer Cs / relative β-galactosidase activity, inducer Es / relative β-galactosidase activity, inducer Ms / relative β-galactosidase activity, inducer Ns / relative β-galactosidase activity, inducer Rs / relative β-galactosidase activity, inducer Sm / relative β-galactosidase activity, inducer Ts / relative β-galactosidase activity, inducer Tb: Table 6, reverse repressor hits; for relative β-galactosidase activity, inducer atc: anhydrotetracycline (0.4 μM); for relative β-galactosidase activity, inducer Ci: chlorimuron; for relative β-galactosidase activity, inducer Ci / relative β-galactosidase activity, inducer Cs / relative β-galactosidase activity, inducer Es / relative β-galactosidase activity, inducer Ms / relative β-galactosidase activity, inducer Ns / relative β-galactosidase activity, inducer Rs / relative β-galactosidase activity, inducer Sm / relative β-galactosidase activity, inducer Ts / relative β-galactosidase activity, inducer Tb: same plate assay format (20 ppm); for relative β-galactosidase activity, inducer Cs: chlorsulfuron; for relative β-galactosidase activity, inducer Es: ethametsulfuron; for relative β-galactosidase activity, inducer Ms: metsulfuron; for relative β-galactosidase activity, inducer Ns: nicosulfuron; for relative β-galactosidase activity, inducer Rs: rimsulfuron; for relative β-galactosidase activity, inducer Sm: sulfometuron; for relative β-galactosidase activity, inducer Ts: thifensulfuron; for relative β-galactosidase activity, inducer Tb: tribenuron; for 0.2 ppm 48 hr (colony color intensity, induction by chlorsulfuron): 0.2 ppm chlorsulfuron as inducer, 48 hr at 30° C.; for 0.2 ppm 48 hr (colony color intensity, induction by chlorsulfuron) / Control 84 hr (background activity, no inducer): M9 assay plates, ImageJ colony color intensity; for Control 84 hr (background activity, no inducer): 84 hr at 30° C.
Molecule,"relative β-galactosidase activity, inducer atc","relative β-galactosidase activity, inducer Ci","relative β-galactosidase activity, inducer Cs","relative β-galactosidase activity, inducer Es","relative β-galactosidase activity, inducer Ms","relative β-galactosidase activity, inducer Ns","relative β-galactosidase activity, inducer Rs","relative β-galactosidase activity, inducer Sm","relative β-galactosidase activity, inducer Ts","relative β-galactosidase activity, inducer Tb",0.2 ppm 48 hr/Control 84 hr,"0.2 ppm 48 hr (colony color intensity, induction by chlorsulfuron)","Control 84 hr (background activity, no inducer)"
"L1-18: library L1 hit with reverse repressor activity (SEQ ID NO: 1206-1213) (protein, rSuR L1-18) MGSRLDKSKVINSALELLNEVGIEGLTTRKLAQKLGVEQPTLYWHVKNKRALLDALAIEMLDRHLTHFCPLEGESWQDFLRNNAKSMRCALLSHRDGAKVWLGTGFTEKQYETKENRLAFLCQQGFSLENALYAIRAVSRFTLGCVLQDQEPQVAKEERETPTTDSMPPLLRQAVELFDHQGAEPAFLFGLELIICGLEKQLKCESES",2.35,0.36,1.22,0.37,0.79,1.44,2.55,0.94,1.13,1.65,–,–,–
"L1-21: library L1 hit with reverse repressor activity (SEQ ID NO: 1206-1213) (protein, rSuR L1-21) MGSRLDKSKVINSALELLNEVGIEGLTTRKLAQKLGVEQPTLYWHVKNKRALLDALAIEMLDRHATHFCPLEGESWQDFLRNNAKSFRCALLSHRDGAKVCLGTAGTEKQYETLENCLAFLCQQGFSLENALYARSAVVCFTLGCVLFDQEMQVAKEERETPTTDSMPPLLRQAAELLDHQGAEPAFLFGLELIICGLEKQLKCESGS",2.81,0.07,0.89,0.61,0.89,2.74,2.31,2.39,0.79,2.13,–,–,–
"L1-25: library L1 hit with reverse repressor activity (SEQ ID NO: 1206-1213) (protein, rSuR L1-25) MGSRLDKSKVINSALELLNEVGIEGLTTRKLAQKLGVEQPTLYWHVKNKRALLDALAIEMLDRHATHFCPLEGESWQDFLRNTAKSMRCALLSHRDGAKVLLGTATTEKQYETLENLLAFLYQQGFSLENALYAWQAVWRFTLGCVLIDQETQVAKEERETPTTDSMPPLLRQAVELKDHQGAEPAFLFGLELIICGLEKQLKCETGS",1.22,0.11,0.28,0.13,0.32,1.21,1.08,0.63,0.64,1.72,–,–,–
"L1-33: library L1 hit with reverse repressor activity (SEQ ID NO: 1206-1213) (protein, rSuR L1-33) MGSRLDKSKVINSALELLNEVGIEGLTTRKLAQKLGVEQPTLYWHVKNKRALLDALAIEMLDRHATHFCPLEGESWQDFLRNNAKSMRCALLSHRDGAKVQLGTAATEKQYETLENKLAFLCQQGFSLENALYAHSAVTQFTLGCVLRDQEGQVAKEERETPTTDSMPPLLRQARELRDHQGAEPAFLFGLELIICGLEKQLKCESGS",8.25,0.76,3.74,2.11,4.29,5.34,10.32,5.02,5.51,4.71,–,–,–
"L1-34: library L1 hit with reverse repressor activity (SEQ ID NO: 1206-1213) (protein, rSuR L1-34) MGSRLDKSKVINSALELLNEVGIEGLTTRKLAQKLGVEQPTLYWHVKNKRALLDALAIEMADRHNTHFCPLEGESWQDFLRNAARSMRCALLSHRDGAKVYLGTARTEKQYETTENVLAFLCQQGFSLENALYAVRAVPRFTLGCVLLDQERQVAKEERETPTTDSMPPLLRQARELTDHQGAEPAFLFGLELIICGLEKQLKCESGS",3.68,0.43,0.85,1.33,1.47,2.91,2.30,2.00,2.97,2.26,–,–,–
"L6-1B03 (protein, Sulfonylurea responsive repressor L6-1B03) MGSRLDKSKVINSALELLNEVGIEGLTTRKLAQKLGVEQPTLYWHVKNKRALLDALAIEMMDRHATHICPLEGESWQDFLRNNAKSMRCALLSHRDGAKVCLGTRWTEQQYEAAENMLAFLCQQGFSLENALYAVSAVRVFTLGCVLFDQESQVAKEERETPTTASMPPLLRQAWELKDHQGAEPAFLFGLELIICGLEKQLKCESGS",–,–,–,–,–,–,–,–,–,–,4.6,30.0,6.6
"L6-2C09 (protein, Sulfonylurea responsive repressor L6-2C09) MGSRLDKSKVINSALELLNEVGIEGLTTRKLAQKLGVEQPTLYWHVKNKRALLDALAIEMMDRHQTHYCPLEGESWQDFLRNTAKSMRCALLSHRDGAKVCLGTRWTEQLYETAENQLAFLCQQGFSLENALYAMSAVRVFTLGCVLFDQELQVAKEERETPTTASMPPLLRQAWELKDHQGAEPAFLFGLELIICGLEKQLKCESGS",–,–,–,–,–,–,–,–,–,–,2.6,13.6,5.2
"L6-2D07 (protein, Sulfonylurea responsive repressor L6-2D07) MGSRLDKSKVINSALELLNEVGIEGLTTRKLAQKLGVEQPTLYWHVKNKRALLDALAIEMMDRHQTHFCPLEGESWQDFLRNTAKSMRCALLSHRDGAKVCLGTRWTEQQYETAENMLAFLCQQGFSLENALYAMSAVRVFTLGCVLFDQESQVAKEERETPTTASMPPLVRQAWELKDHQGAEPAFLFGLELIICGLEKQLKCESGS",–,–,–,–,–,–,–,–,–,–,3.4,20.0,5.8
"L6-3H02: SuR polypeptide, SEQ ID NO: 94 (protein, Sulfonylurea responsive repressor L6-3H02) MGSRLDKSKVINSALELLNEVGIEGLTTRKLAQKLGVEQPTLYWHVKNKRALLDALAIEMMDRHATHYCPLEGESWQDFLRNTAKSMRCALLSHRDGAKVCLGTRWTEQHYESAENMLAFLCQQGFSLENALYAVSAVRVFTLGCVLFDQESQVAKEERETPTTASMPPLVRQAWELKVHQGAEPAFLFGLELIICGLEKQLKCESGS",–,–,–,–,–,–,–,–,–,–,2.8,15.8,5.6
"L6-4D10 (protein, Sulfonylurea responsive repressor L6-4D10) MGSRLDKSKVINSALELLNEVGIEGLTTRKLAQKLGVEQPTLYWHVKNKRALLDALAIEMMDRHQTHYCPLEGESWQDFLRNNAKSMRCALLSHRDGAKVCLGTRWTEKQYESAENMLAFLCQQGFSLENALYAVSAVRVFTLGCVLFDQESQVAKEERETPTTASMPPLLRQAWELKDHQGAEPAFLFGLELIICGLEKQLKCESGS",–,–,–,–,–,–,–,–,–,–,3.7,18.4,5.0
"L6-5F05 (protein, Sulfonylurea responsive repressor L6-5F05) MGSRLDKSKVINSALELLNEVGIEGLTTRKLAQKLGVEQPTLYWHVKNKRALLDALAIEMMDRHATHICPLEGESWQDFLRNNAKSMRCALLSHRDGAKVCLGTRWTEQQYEAAENQLAFLCQQGFSLENALYAVSAVRVFTLGCVLFDQELQVAKEERETPTTASMPPLLRQAWELKDHQGAEPAFLFGLELIICGLEKQLKCESGS",–,–,–,–,–,–,–,–,–,–,4.1,22.0,5.4
"L6-5G06 (protein, Sulfonylurea responsive repressor L6-5G06) MGSRLDKSKVINSALELLNEVGIEGLTTRKLAQKLGVEQPTLYWHVKNKRALLDALAIEMMDRHQTHYCPLEGESWQDFLRNNAKSMRCALLSHRDGAKVCLGTRWTEQQYETAENQLAFLCQQGFSLENALYAVSAVRVFTLGCVLFDQELQVAKEERETPTTASMPPLLRQGWELKDHQGAEPAFLFGLELIICGLEKQLKCESGS",–,–,–,–,–,–,–,–,–,–,4.9,34.4,7.0
